Results reported in PMC11618073.

Legend:
[1] = target: canonical S. cerevisiae nucleosome (two H2A–H2B dimers) on Widom 601 DNA (S. cerevisiae) (UniProt P04911); assay: single-molecule fluorescence colocalisation; surface-immobilised 113N2.AF488 nucleosome; 5 nM SWR1(647N) with 1 mM ATP injected; 25 mM Tris-HCl pH 7.8, 100 mM KCl, 4% glycerol, 1 mM EDTA, 2 mM MgCl2, 0.2 mg/ml BSA; 22 °C; time to bind and bound lifetime from tMAVEN
[2] = target: heterotypic S. cerevisiae nucleosome (one Htz1–H2B dimer and one H2A–H2B dimer) (S. cerevisiae) (UniProt P04911); assay: FRET or BRET; single-molecule FRET (prism-TIRF); biotinylated nucleosome or hexasome with Cy3 on the 2-bp DNA overhang immobilised via neutravidin; 10 nM SWR1(647N) injected; 25 mM Tris-HCl pH 7.8, 100 mM KCl, 4% glycerol, 1 mM EDTA, 2 mM MgCl2, 0.2 mg/ml BSA; room temperature; 100-ms frames

SWR1(Atto647N–Arp6) (from UniProt Q05471 1-1514; Q12509 1-438; Q03433 1-280; Q03388 1-795; Q03940 1-463; Q12464 1-471; P38326 1-303) (complex)
lifetime of the bound complex (stably bound species) [1]: 19 min | time to bind [1]: 6.58 min | dwell time on the Htz1–H2B face (single fast exponential decay) [2]: 0.63 s
